Data from US12428633B2, “Inducible dimerization of recombinases” (TRUSTEES OF BOSTON UNIVERSITY, priority 2016, dated 2025).

B1: Flp 374: Flp (SEQ ID NO: 1) split into aa 1-374 and 375-423, fused to CIDD pair (protein)
chain 1: MSQFDILCKTPPKVLVRQFVERFERPSGEKIASCAAELTYLCWMITHNGTAIKRATFMSYNTIISNSLSFDIVNKSLQFKYKTQKATILEASLKKLIPAWEFTIIPYNGQKHQSDITDIVSSLQLQFESSEEADKGNSHSKKMLKALLSEGESIWEITEKILNSFEYTSRFTKTKTLYQFLFLATFINCGRFSDIKNVDPKSFKLVQNKYLGVIIQCLVTETKTSVSRHIYFFSARGRIDPLVYLDEFLRNSEPVLKRVNRTGNSSSNKQEYQLLKDNLVRSYNKALKKNAPYPIFAIKNGPKSHIGRHLMTSFLSMKGLTELTNVVGNWSDKRASAVARTTYTHQITAIPDHYFALVSRYYAYDPISKEMIAL
chain 2: KDETNPIEEWQHIEQLKGSAEGSIRYPAWNGIISQEVLDYLSSYINRRI
modifications: fused to CIDD pair
B2: Flp 27: Flp (SEQ ID NO: 1) split into aa 1-27 and 28-423, fused to CIDD pair (protein)
chain 1: MSQFDILCKTPPKVLVRQFVERFERPS
chain 2: GEKIASCAAELTYLCWMITHNGTAIKRATFMSYNTIISNSLSFDIVNKSLQFKYKTQKATILEASLKKLIPAWEFTIIPYNGQKHQSDITDIVSSLQLQFESSEEADKGNSHSKKMLKALLSEGESIWEITEKILNSFEYTSRFTKTKTLYQFLFLATFINCGRFSDIKNVDPKSFKLVQNKYLGVIIQCLVTETKTSVSRHIYFFSARGRIDPLVYLDEFLRNSEPVLKRVNRTGNSSSNKQEYQLLKDNLVRSYNKALKKNAPYPIFAIKNGPKSHIGRHLMTSFLSMKGLTELTNVVGNWSDKRASAVARTTYTHQITAIPDHYFALVSRYYAYDPISKEMIALKDETNPIEEWQHIEQLKGSAEGSIRYPAWNGIISQEVLDYLSSYINRRI
modifications: fused to CIDD pair
B3: Flp 396: Flp (SEQ ID NO: 1) split into aa 1-396 and 397-423, fused to CIDD pair (protein)
chain 1: MSQFDILCKTPPKVLVRQFVERFERPSGEKIASCAAELTYLCWMITHNGTAIKRATFMSYNTIISNSLSFDIVNKSLQFKYKTQKATILEASLKKLIPAWEFTIIPYNGQKHQSDITDIVSSLQLQFESSEEADKGNSHSKKMLKALLSEGESIWEITEKILNSFEYTSRFTKTKTLYQFLFLATFINCGRFSDIKNVDPKSFKLVQNKYLGVIIQCLVTETKTSVSRHIYFFSARGRIDPLVYLDEFLRNSEPVLKRVNRTGNSSSNKQEYQLLKDNLVRSYNKALKKNAPYPIFAIKNGPKSHIGRHLMTSFLSMKGLTELTNVVGNWSDKRASAVARTTYTHQITAIPDHYFALVSRYYAYDPISKEMIALKDETNPIEEWQHIEQLKGSAEG
chain 2: SIRYPAWNGIISQEVLDYLSSYINRRI
modifications: fused to CIDD pair
B4: Flp 168: Flp (SEQ ID NO: 1) split into aa 1-168 and 169-423, fused to CIDD pair (protein)
chain 1: MSQFDILCKTPPKVLVRQFVERFERPSGEKIASCAAELTYLCWMITHNGTAIKRATFMSYNTIISNSLSFDIVNKSLQFKYKTQKATILEASLKKLIPAWEFTIIPYNGQKHQSDITDIVSSLQLQFESSEEADKGNSHSKKMLKALLSEGESIWEITEKILNSFEYT
chain 2: SRFTKTKTLYQFLFLATFINCGRFSDIKNVDPKSFKLVQNKYLGVIIQCLVTETKTSVSRHIYFFSARGRIDPLVYLDEFLRNSEPVLKRVNRTGNSSSNKQEYQLLKDNLVRSYNKALKKNAPYPIFAIKNGPKSHIGRHLMTSFLSMKGLTELTNVVGNWSDKRASAVARTTYTHQITAIPDHYFALVSRYYAYDPISKEMIALKDETNPIEEWQHIEQLKGSAEGSIRYPAWNGIISQEVLDYLSSYINRRI
modifications: fused to CIDD pair
B5: VCre 172: VCre (SEQ ID NO: 16) split into aa 1-172 and 173-380, fused to CIDD pair (protein)
chain: MIENQLSLLGDFSGVRPDDVKTAIQAAQKKGINVAENEQFKAAFEHLLNEFKKREERYSPNTLRRLESAWTCFVDWCLANHRHSLPATPDTVEAFFIERAEELHRNTLSVYRWAISRVHRVAGCPDPCLDIYVEDRLKAIARKKVREGEAVKQASPFNEQHLLKLTSLWYRSDKLLLRRNLALLAVAYESMLRASELANIRVSDMELAGDGTAILTIPITKTNHSGEPDTCILSQDVVSLLMDYTEAGKLDMSSDGFLFVGVSKHNTCIKPKKDKQTGEVLHKPITTKTVEGVFYSAWETLDLGRQGVKPFTAHSARVGAAQDLLKKGYNTLQIQQSGRWSSGAMVARYGRAILARDGAMAHSRVKTRSAPMQWGKDEKD
modifications: split at 172/173; CIDD pair fusions lack entries
B6: VCre 82: VCre (SEQ ID NO: 16) split into aa 1-82 and 83-380, fused to CIDD pair (protein)
chain: B5 chain
modifications: split at 82/83; CIDD pair fusions lack entries
B7: VCre 277: VCre (SEQ ID NO: 16) split into aa 1-277 and 278-380, fused to CIDD pair (protein)
chain: B5 chain
modifications: split at 277/278; CIDD pair fusions lack entries
B8: VCre 269: VCre (SEQ ID NO: 16) split into aa 1-269 and 270-380, fused to CIDD pair (protein)
chain: B5 chain
modifications: split at 269/270; CIDD pair fusions lack entries

What follows are molecules tested on pCAG-FRT-Neo-FRT-GFP reporter (assay: Gibberellin ester (GIB)-induced split-Flp rejoinder, GFP reporter). Settings: GAI/GID1 CIDD pair; with vs without GIB.
Format: cell-based, human
Experimental: Full length FlpO and split Flp vectors were tested for induction of recombinase activity on a pCAG-FRT-Neo-FRT-GFP reporter with and without the presence of gibberellin ester (GIB).
FIGS. 43A-43E show results of gene expression of different split-recombinase Flp (SEQ ID NO: 1) or B3 fragments (SEQ ID NO: 19). […] FIGS. 43B-43E show the GFP expression levels of different amino acid residue of split sites (S) of Flp amino acid sequence (top; shown in blue) and amino acid residue of split sites (S) of B3 amino acid sequence (below, shown in orange).
DNA was transfected into the human embryonic kidney cell line (HEK293FT) using a polyethylenimine (PEI) protocol. Cells were plated onto 48-(2504) or 96-well (1004) plates the day prior to transfection (200,000 cells/mL), such that the cells were 50-70% confluent the day of transfection. Cells were kept in a humidified incubator at 37° C. and 5% CO2 and maintained in DMEM medium (Corning) with 10% Heat Inactivated Fetal Bovine Serum (Life Technologies), 50 U.I./mL penicillin/50 μg/mL streptomycin (Corning), 2 mM glutamine (Corning) and 1 mM sodium pyruvate (Lonza). PEI stocks were made from linear polyethylenimine (Polysciences 23966-2) and were dissolved at a concentration of 0.323 g/L in deionized water with the assistance of concentrated hydrochloric acid and sodium hydroxide and then filtered sterilized (0.24 μm). PEI stocks were stored at −80° C. until use and warmed to room temperature prior to usage. For 48-well plate transfections, DNA (1000 ng, 50 ng/4) was dissolved and brought up to a volume of 50 μL using 0.15 M sodium chloride (NaCl, Fisher Scientific). DNA-NaCl solutions were then mixed with 50 μL of a PEI-NaCl mixture (8 uL PEI: 42 uL NaCl). These solutions were then incubated at room temperature for ten minutes and 25 μL was carefully dropped into individual wells of HEK293FT cells (250 ng DNA/well). Similarly, for 96-well plate transfections, DNA (500 ng, 50 ng/4) was dissolved and brought up to a volume of 25 μL using 0.15 M sodium chloride (NaCl). DNA-NaCl solutions were then mixed with 25 μL of a PEI-NaCl (4 uL PEI: 21 uL NaCl) mixture. These solutions were then incubated at room temperature for ten minutes and 10 μL was carefully dropped into individual wells of HEK293FT cells (100 ng DNA/well). Electronic space-adjustable multichannel pipettors (Integra Biosciences) were utilized throughout the process for rapid aspiration and dispensing of molecular and cellular reagents. […]
(§1) Two days post-transfection and after trypsinization (0.05% Trypsin/0.53 mM EDTA, Corning) and resuspension, all HEK293FT cell populations were analyzed using a Becton Dickinson (BD) LSRFortessa SORP flow cytometer with HTS. […]

Row | Molecule | GFP expression of split-Flp by split site (S)
1 | B1 | result in GFP expression in the presence of GIB
2 | B2 | result in GFP expression in the presence of GIB
3 | B3 | result in GFP expression in the presence of GIB
4 | B4 | result in GFP expression in the presence of GIB

The molecules below were run on VloxP (assay: Gibberellin ester (GIB)-induced split-VCre rejoinder, GFP reporter). Settings: GAI/GID1 CIDD pair; with vs without GIB.
Format: cell-based, human
Experimental: FIGS. 42A-42B show results of gene expression of different split-recombinase Cre (SEQ ID NO: 74) or VCre fragments (SEQ ID NO: 16).
DNA was transfected into the human embryonic kidney cell line (HEK293FT) using a polyethylenimine (PEI) protocol. Cells were plated onto 48-(2504) or 96-well (1004) plates the day prior to transfection (200,000 cells/mL), such that the cells were 50-70% confluent the day of transfection. Cells were kept in a humidified incubator at 37° C. and 5% CO2 and maintained in DMEM medium (Corning) with 10% Heat Inactivated Fetal Bovine Serum (Life Technologies), 50 U.I./mL penicillin/50 μg/mL streptomycin (Corning), 2 mM glutamine (Corning) and 1 mM sodium pyruvate (Lonza). PEI stocks were made from linear polyethylenimine (Polysciences 23966-2) and were dissolved at a concentration of 0.323 g/L in deionized water with the assistance of concentrated hydrochloric acid and sodium hydroxide and then filtered sterilized (0.24 μm). PEI stocks were stored at −80° C. until use and warmed to room temperature prior to usage. For 48-well plate transfections, DNA (1000 ng, 50 ng/4) was dissolved and brought up to a volume of 50 μL using 0.15 M sodium chloride (NaCl, Fisher Scientific). DNA-NaCl solutions were then mixed with 50 μL of a PEI-NaCl mixture (8 uL PEI: 42 uL NaCl). These solutions were then incubated at room temperature for ten minutes and 25 μL was carefully dropped into individual wells of HEK293FT cells (250 ng DNA/well). Similarly, for 96-well plate transfections, DNA (500 ng, 50 ng/4) was dissolved and brought up to a volume of 25 μL using 0.15 M sodium chloride (NaCl). DNA-NaCl solutions were then mixed with 25 μL of a PEI-NaCl (4 uL PEI: 21 uL NaCl) mixture. These solutions were then incubated at room temperature for ten minutes and 10 μL was carefully dropped into individual wells of HEK293FT cells (100 ng DNA/well). Electronic space-adjustable multichannel pipettors (Integra Biosciences) were utilized throughout the process for rapid aspiration and dispensing of molecular and cellular reagents. A Countess II image-based cell counter (Life Technologies) was used for measuring human cell population densities.
Rapamycin analog (Clontech A/C heterodimerizer AP21967, 0.5 mM) was used as a 1000× stock for chemical induction experiments. […]
as §1

Row | Molecule | GFP expression of split-VCre by split site (S)
5 | B5 | result in GFP expression in the presence of GIB
6 | B6 | result in GFP expression in the presence of GIB
7 | B7 | result in GFP expression in the presence of GIB
8 | B8 | result in GFP expression in the presence of GIB
